# Results as given in the supplement of paper PMC10567573.
# B1: KLHDC10 (parent)
# chain: FGGTGIPFGESNGNGVHVCNVKYK
# B2: TRIM29 (parent)
# chain: FAEKGELRKSIFSESRKPTVSIME
# Variants of: B1
# Test: protein stability index of a GFP-peptide fusion (GPS, HEK-293T) (PSI 1-6); higher = more stable
# Conditions: c terminus: a fixed tail appended
# 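Also: lentivirally expressed fusions sorted by FACS into six bins by GFP to DsRed ratio, PSI derived from sequencing read proportions per bin multiplied by bin number.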
row,Variant,protein stability index
1,FGGTGIPFGESNGNGVHVGNVKYK,2.06
2,FGGTGIPFGESNGNGVHVWNVKYK,1.71
3,FGGTGIPFGESNGNGVHVVNVKYK,2.07
4,FGGTGRPFGESNGNGVHVCNVKYK,1.72
5,FGGTGNPFGESNGNGVHVCNVKYK,2.07
6,FGGTGQPFGESNGNGVHVCNVKYK,2.27
7,FGGTGLPFGESNGNGVHVCNVKYK,2.39
8,FGGTGSPFGESNGNGVHVCNVKYK,1.88
9,FGGTGIPFGESNGNGVLVCNVKYK,2.08
10,FGGTGIPFGESNGNGVPVCNVKYK,2.68
11,FGGTGIPFGESNGNGVTVCNVKYK,2.22
12,FGGTGIPFGESNGNGVIVCNVKYK,1.91
13,FGGTGIPFGESNGNGVEVCNVKYK,2.48
14,FGGTGIPFGESNGNGVHKCNVKYK,1.86
15,FGGTGIPFGESNGNGVHICNVKYK,1.74
16,FGGTGIPFGESNGNGVHLCNVKYK,1.71
17,FGGTGIPFGESNGNGVHFCNVKYK,2.15
18,FGGTGIPFGESNGNGVHACNVKYK,2.1
19,FGGTGINFGESNGNGVHVCNVKYK,2.4
20,FGGTGIVFGESNGNGVHVCNVKYK,2.92
21,FGGTGIHFGESNGNGVHVCNVKYK,2.13
22,FGGTGISFGESNGNGVHVCNVKYK,2.14
23,FGGTGIYFGESNGNGVHVCNVKYK,2.5

row,Variant,protein stability index
1,FGGTGIGFGESNGNGVHVCNVKYK,2.23
2,FGGTGIPFGESRGNGVHVCNVKYK,1.51
3,FGGTGIPFGESYGNGVHVCNVKYK,2.59
4,FGGTGIPFGESWGNGVHVCNVKYK,1.74
5,FGGTGIPFGESLGNGVHVCNVKYK,1.87
6,FGGTGIPFGESTGNGVHVCNVKYK,1.97
7,FGGTGIPFGESKGNGVHVCNVKYK,1.82
8,FGGTGIPFGESFGNGVHVCNVKYK,1.41
9,FGGTGIPFGESNGNGVHVCNAKYK,1.74
10,FGGTGIPFGESNGNGVHVCNCKYK,2.04
11,FGGTGIPFGESNGNGVHVCNMKYK,1.95
12,FGGTGIPFGESNGNGVHVCNWKYK,1.86
13,FGGTGIPFGESNGNGVHVCNYKYK,2.5
14,FGGTGIPFGEANGNGVHVCNVKYK,1.97
15,FGGTGIPFGEKNGNGVHVCNVKYK,1.87
16,FGGTGIPFGEYNGNGVHVCNVKYK,1.65
17,FGGTGIPFGEWNGNGVHVCNVKYK,2.4
18,FGGTTIPFGESNGNGVHVCNVKYK,2.18
19,FGGTAIPFGESNGNGVHVCNVKYK,2.07
20,FGGTIIPFGESNGNGVHVCNVKYK,3.13
21,FGGTEIPFGESNGNGVHVCNVKYK,3.42
22,FGGRGIPFGESNGNGVHVCNVKYK,1.93
23,FGGMGIPFGESNGNGVHVCNVKYK,1.65

row,Variant,protein stability index
1,FGGNGIPFGESNGNGVHVCNVKYK,1.98
2,FGGDGIPFGESNGNGVHVCNVKYK,2.52
3,FGGWGIPFGESNGNGVHVCNVKYK,2.52
4,FGGHGIPFGESNGNGVHVCNVKYK,1.9
5,FGGPGIPFGESNGNGVHVCNVKYK,2.91
6,FGGTGIPFGESNGNGVHVCNVKMK,2.1
7,FGGTGIPFGESNGNGVHVCNVKKK,2.01
8,FGGTGIPFGESNGNGVHVCNVKGK,2.04
9,FGGTGIPFGESNGNGVHVCNVKNK,2.49
10,FGGTGIPFGESNGNGVHVCNVKIK,2.38
11,FGGTGIPHGESNGNGVHVCNVKYK,2.65
12,FGGTGIPMGESNGNGVHVCNVKYK,3.02
13,FGGTGIPSGESNGNGVHVCNVKYK,3.62
14,FGGTGIPPGESNGNGVHVCNVKYK,4.12
15,FGGTGIPLGESNGNGVHVCNVKYK,3.04
16,FGGTGIPIGESNGNGVHVCNVKYK,2.5
17,FFGTGIPFGESNGNGVHVCNVKYK,2.72
18,FRGTGIPFGESNGNGVHVCNVKYK,3.08
19,FQGTGIPFGESNGNGVHVCNVKYK,2.02
20,FKGTGIPFGESNGNGVHVCNVKYK,3.55
21,FMGTGIPFGESNGNGVHVCNVKYK,2.7
22,FGGTGIPFGESNGNGVHVCNVQYK,2.89
23,FGGTGIPFGESNGNGVHVCNVNYK,1.8

row,Variant,protein stability index
1,FGGTGIPFGESNGNGVHVCNVAYK,2.53
2,FGGTGIPFGESNGNGVHVCNVCYK,1.24
3,FGGTGIPFGESNGNGVHVCNVDYK,2.35
4,FGGTGIPFGESNGNGVHVCNVYYK,1.95
5,FGGTGIPFGESNGNGVHVCPVKYK,1.52
6,FGGTGIPFGESNGNGVHVCSVKYK,1.65
7,FGGTGIPFGESNGNGVHVCFVKYK,2.06
8,FGGTGIPFGESNGNGVHVCCVKYK,1.11
9,FGGTGIPFGESNGNRVHVCNVKYK,1.82
10,FGGTGIPFGESNGNYVHVCNVKYK,1.42
11,FGGTGIPFGESNGNKVHVCNVKYK,2.1
12,FGGTGIPFGESNGNQVHVCNVKYK,1.78
13,FGGTGIPFGESNGPGVHVCNVKYK,1.91
14,FGGTGIPFGESNGYGVHVCNVKYK,1.62
15,FGGTGIPFGESNGSGVHVCNVKYK,1.9
16,FGGTGIPFGESNGAGVHVCNVKYK,1.82
17,FGGTGIPFGESNGLGVHVCNVKYK,1.81
18,FGGTGIPFGESNGNGNHVCNVKYK,2.06
19,FGGTGIPFGESNGNGTHVCNVKYK,1.98
20,FGGTGIPFGESNGNGLHVCNVKYK,1.39
21,FGGTGIPFEESNGNGVHVCNVKYK,3.16
22,FGGTGIPFMESNGNGVHVCNVKYK,1.18
23,FGGTGIPFAESNGNGVHVCNVKYK,1.85

row,Variant,protein stability index
1,FGGTGIPFDESNGNGVHVCNVKYK,3.04
2,FGGTGIPFGLSNGNGVHVCNVKYK,2.43
3,FGGTGIPFGRSNGNGVHVCNVKYK,2.46
4,FGGTGIPFGPSNGNGVHVCNVKYK,1.95
5,FGGTGIPFGESNWNGVHVCNVKYK,2.03
6,FGGTGIPFGESNSNGVHVCNVKYK,1.92
7,FGGTGIPFGESNYNGVHVCNVKYK,2.09
8,FGGTGIPFGESNMNGVHVCNVKYK,2.73
9,FGGTGIPFGESNQNGVHVCNVKYK,2.38
10,FGGTGIPFGESNCNGVHVCNVKYK,1.59
11,WGGTGIPFGESNGNGVHVCNVKYK,2.73
12,HGGTGIPFGESNGNGVHVCNVKYK,3.93
13,KGGTGIPFGESNGNGVHVCNVKYK,3.71
14,RGGTGIPFGESNGNGVHVCNVKYK,3.54
15,IGGTGIPFGESNGNGVHVCNVKYK,3.5
16,TGGTGIPFGESNGNGVHVCNVKYK,3.98
17,LGGTGIPFGESNGNGVHVCNVKYK,4.04
18,FGGTGIPFGESNGNGVHVCNVKYM,2.42
19,FGGTGIPFGESNGNGVHVCNVKYY,1.88
20,FGGTGIPFGESNGNGVHVCNVKYD,2.4
21,FGGTGIPFGESNGNGVHVCNVKYV,1.66
22,FGNTGIPFGESNGNGVHVCNVKYK,2.35
23,FGKTGIPFGESNGNGVHVCNVKYK,2.32

# Variants of: B2
# Test: as above
# Conditions: c terminus: a fixed tail appended
row,Variant,protein stability index
1,FAEMGELRKSIFSESRKPTVSIME,1.39
2,FAEPGELRKSIFSESRKPTVSIME,1.8
3,FAESGELRKSIFSESRKPTVSIME,1.8
4,FAECGELRKSIFSESRKPTVSIME,2.24
5,FAEFGELRKSIFSESRKPTVSIME,1.77
6,FAEGGELRKSIFSESRKPTVSIME,2.02
7,FAEEGELRKSIFSESRKPTVSIME,2.33
8,FAERGELRKSIFSESRKPTVSIME,2.08
9,FAETGELRKSIFSESRKPTVSIME,2.14
10,FAEQGELRKSIFSESRKPTVSIME,1.71
11,FAENGELRKSIFSESRKPTVSIME,2.53
12,FAEAGELRKSIFSESRKPTVSIME,1.87
13,FAEIGELRKSIFSESRKPTVSIME,2.1
14,FAEDGELRKSIFSESRKPTVSIME,2.06
15,FAEHGELRKSIFSESRKPTVSIME,1.75
16,FAELGELRKSIFSESRKPTVSIME,2.38
17,FSEKGELRKSIFSESRKPTVSIME,2.53
18,FDEKGELRKSIFSESRKPTVSIME,3.76
19,FYEKGELRKSIFSESRKPTVSIME,2.88
20,FREKGELRKSIFSESRKPTVSIME,3.42
21,FEEKGELRKSIFSESRKPTVSIME,3.35
22,FNEKGELRKSIFSESRKPTVSIME,2.91
23,FGEKGELRKSIFSESRKPTVSIME,2.06
24,FMEKGELRKSIFSESRKPTVSIME,3.21
25,FIEKGELRKSIFSESRKPTVSIME,1.89

row,Variant,protein stability index
1,FCEKGELRKSIFSESRKPTVSIME,1.66
2,FPEKGELRKSIFSESRKPTVSIME,2.59
3,FTEKGELRKSIFSESRKPTVSIME,2.36
4,FQEKGELRKSIFSESRKPTVSIME,3.44
5,FWEKGELRKSIFSESRKPTVSIME,2.74
6,FLEKGELRKSIFSESRKPTVSIME,2.38
7,FVEKGELRKSIFSESRKPTVSIME,2.1
8,FKEKGELRKSIFSESRKPTVSIME,3.44
9,FFEKGELRKSIFSESRKPTVSIME,2.52
10,FHEKGELRKSIFSESRKPTVSIME,2.07
11,FARKGELRKSIFSESRKPTVSIME,2.27
12,FATKGELRKSIFSESRKPTVSIME,2.59
13,FAVKGELRKSIFSESRKPTVSIME,1.15
14,FADKGELRKSIFSESRKPTVSIME,1.9
15,FASKGELRKSIFSESRKPTVSIME,3.11
16,FAWKGELRKSIFSESRKPTVSIME,1.83
17,FACKGELRKSIFSESRKPTVSIME,1.92
18,FAFKGELRKSIFSESRKPTVSIME,1.42
19,FAYKGELRKSIFSESRKPTVSIME,1.88
20,FAQKGELRKSIFSESRKPTVSIME,2.05
21,FAAKGELRKSIFSESRKPTVSIME,3.08
22,FAMKGELRKSIFSESRKPTVSIME,2.09
23,FANKGELRKSIFSESRKPTVSIME,2.29
24,FAKKGELRKSIFSESRKPTVSIME,2.29
25,FALKGELRKSIFSESRKPTVSIME,1.04

row,Variant,protein stability index
1,FAIKGELRKSIFSESRKPTVSIME,2.43
2,FAGKGELRKSIFSESRKPTVSIME,2.95
3,FAHKGELRKSIFSESRKPTVSIME,1.66
4,FAPKGELRKSIFSESRKPTVSIME,2.79
5,DAEKGELRKSIFSESRKPTVSIME,4.75
6,SAEKGELRKSIFSESRKPTVSIME,3.58
7,IAEKGELRKSIFSESRKPTVSIME,3.63
8,EAEKGELRKSIFSESRKPTVSIME,4.13
9,MAEKGELRKSIFSESRKPTVSIME,3.73
10,WAEKGELRKSIFSESRKPTVSIME,2.6
11,PAEKGELRKSIFSESRKPTVSIME,3.9
12,QAEKGELRKSIFSESRKPTVSIME,3.97
13,YAEKGELRKSIFSESRKPTVSIME,1.45
14,TAEKGELRKSIFSESRKPTVSIME,3.95
15,LAEKGELRKSIFSESRKPTVSIME,3.14
16,VAEKGELRKSIFSESRKPTVSIME,3.94
17,RAEKGELRKSIFSESRKPTVSIME,3.66
18,KAEKGELRKSIFSESRKPTVSIME,4.27
19,NAEKGELRKSIFSESRKPTVSIME,4.34
20,GAEKGELRKSIFSESRKPTVSIME,3.89
21,AAEKGELRKSIFSESRKPTVSIME,4.35
22,HAEKGELRKSIFSESRKPTVSIME,4.29
23,CAEKGELRKSIFSESRKPTVSIME,2.68
